The record followed here is patent publication US20210054077A1 (AMUNIX PHARMACEUTICALS, published 2021).

Where a chain is given by its changes, count along the chain named.

Assay [1] has as its target human HER2 on cells (HER2 positive human carcinoma cells; CT26-huHER2 transfected cells; human cardiomyocytes) (human, UniProt P04626 23-1255). The assay can be described thus: cell-based or functional assay.
Another assay has as its target T1, Human CD3 ϵ -Fc (human, UniProt P07766 23-126).
T1 construct: not shown: Fc part, captured on anti-human Fc biosensors
The assay can be described thus: BLI (ForteBio Octet Red); target-Fc loaded on anti-human Fc biosensor, AC2275 as analyte 1010 nM to 16 nM.

A further assay deals with T2, Cyno CD3 ϵ -Fc (cynomolgus monkey, UniProt Q95LI5 22-117).
T2 construct: also called cynomolgus monkey CD3; not shown: Fc part, captured on anti-human Fc biosensors
T2 sequence (looked up): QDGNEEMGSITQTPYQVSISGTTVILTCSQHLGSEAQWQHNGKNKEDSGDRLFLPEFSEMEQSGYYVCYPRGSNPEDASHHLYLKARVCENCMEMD
Described as above.

For assay [2], the target named is human HER2 on cells (HER2 positive human carcinoma cells; CT26-huHER2 transfected cells; human cardiomyocytes) (human) (UniProt P04626). The assay can be described thus: cell-based or functional assay.
For assay [3], the target named is Biotinylated CD3CEµ antigen (Creative Biomart). The assay is described as follows: BLI (ForteBio BLItz); biotinylated CD3 antigen on streptavidin biosensor, scFv dilution series in solution.
Biotinylated CD3CEµ antigen (Creative Biomart), sequence (P07766 23-126): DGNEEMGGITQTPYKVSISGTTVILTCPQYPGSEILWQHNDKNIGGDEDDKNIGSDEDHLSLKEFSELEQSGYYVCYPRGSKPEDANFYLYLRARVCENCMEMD

T1 sequence (P07766 23-126): as above

B1: AC2275, bivalent anti-HER2, anti-CD3 XTENylated binder (HER2-XPAT of Example 24) (bispecific antibody)
chain: HHHHHHSPAGSPTSTEEGTSESATPESGPGTSTEPSEGSAPGTSESATPESGPGSEPATSGSETPGTSESATPESGPGSEPATSGSETPGTSESATPESGPGTSTEPSEGSAPGSPAGSPTSTEEGTSESATPESGPGSEPATSGSETPGTSESATPESGPGSPAGSPTSTEEGSPAGSPTSTEEGTSTEPSEGSAPGTSESATPESGPGTSESATPESGPGTSESATPESGPGSEPATSGSETPGSEPATSGSETPGSPAGSPTSTEEGTSTEPSEGSAPGTSTEPSEGSAPGGSAPEAGRSANHTPAGLTGPATSGSETPGTDIQMTQSPSSLSASVGDRVTITCKASQDVSIGVAWYQQKPGKAPKLLIYSASYRYTGVPSRFSGSGSGTDFTLTISSLQPEDFATYYCQQYYIYPYTFGQGTKVEIKGATPPETGAETESPGETTGGSAESEPPGEGEVQLVESGGGLVQPGGSLRLSCAASGFTFTDYTMDWVRQAPGKGLEWVADVNPNSGGSIYNQRFKGRFTLSVDRSKNTLYLQMNSLRAEDTAVYYCARNLGPSFYFDYWGQGTLVTVSSGGGGSELVVTQEPSLTVSPGGTVTLTCRSSNGAVTSSNYANWVQQKPGQAPRGLIGGTNKRAPGTPARFSGSLLGGKAALTLSGVQPEDEAVYYCALWYPNLWVFGGGTKLTVLGATPPETGAETESPGETTGGSAESEPPGEGEVQLLESGGGIVQPGGSLKLSCAASGFTFNTYAMNWVRQAPGKGLEWVARIRSKYNNYATYYADSVKDRFTISRDDSKNTVYLQMNNLKTEDTAVYYCVRHENFGNSYVSWFAHWGQGTLVTVSSGTAEAASASGEAGRSANHTPAGLTGPPGSPAGSPTSTEEGTSESATPESGPGTSTEPSEGSAPGSPAGSPTSTEEGTSTEPSEGSAPGTSTEPSEGSAPGTSESATPESGPGSEPATSGSETPGSEPATSGSETPGSPAGSPTSTEEGTSESATPESGPGTSTEPSEGSAPGTSTEPSEGSAPGSPAGSPTSTEEGTSTEPSEGSAPGTSTEPSEGSAPGTSESATPESGPGTSTEPSEGSAPGTSESATPESGPGSEPATSGSETPGTSTEPSEGSAPGTSTEPSEGSAPGTSESATPESGPGTSESATPESGPGSPAGSPTSTEEGTSESATPESGPGSEPATSGSETPGTSESATPESGPGTSTEPSEGSAPGTSTEPSEGSAPGTSTEPSEGSAPGTSTEPSEGSAPGTSTEPSEGSAPGTSTEPSEGSAPGSPAGSPTSTEEGTSTEPSEGSAPGTSESATPESGPGSEPATSGSETPGTSESATPESGPGSEPATSGSETPGTSESATPESGPGTSTEPSEGSAPGTSESATPESGPGSPAGSPTSTEEGSPAGSPTSTEEGSPAGSPTSTEEGTSESATPESGPGTSTEPSEGSAPGAAEPEA
notes: also called HER2-XPAT 2275
As for B1, in assay [1], the “EC50, % CD69+ T cells in human PBMC co-cultured with SK-OV-3 cells (flow cytometry)” value is 0.00363 µM; the “IC50, T-cell directed cytotoxicity (CellTiter-Glo ATP assay), BT474 cells with human PBMC” value was 0.00136 µM; the “IC50, T-cell directed cytotoxicity (CellTiter-Glo ATP assay), MCF7 cells with human PBMC” value was greater than 0.0267 µM; the “IC50, T-cell directed cytotoxicity (CellTiter-Glo ATP assay), SKOV3 cells with human PBMC” value came out at 0.0153 µM. Also, in the assay with Human CD3 ϵ -Fc, the Kd was 0.111 µM. The molecule further had a Kd with Cyno CD3 ϵ -Fc of 0.17 µM.

B2: pJB0244, masked anti-HER2 x anti-CD3 bispecific antigen binding polypeptide with two XTEN and two RSR2295 release segments (bispecific antibody, part only; not given: AE868 XTEN, scFv linker, not shown: small tags and cut ends)
chain, part: HHHHHHSPAGSPTSTEEGTSESATPESGPGTSTEPSEGSAPGTSESATPESGPGSEPATSGSETPGTSESATPESGPGSEPATSGSETPGTSESATPESGPGTSTEPSEGSAPGSPAGSPTSTEEGTSESATPESGPGSEPATSGSETPGTSESATPESGPGSPAGSPTSTEEGSPAGSPTSTEEGTSTEPSEGSAPGTSESATPESGPGTSESATPESGPGTSESATPESGPGSEPATSGSETPGSEPATSGSETPGSPAGSPTSTEEGTSTEPSEGSAPGTSTEPSEGSAPGGSAPEAGRSANHTPAGLTGPDIQMTQSPSSLSASVGDRVTITCKASQDVSIGVAWYQQKPGKAPKLLIYSASYRYTGVPSRFSGSGSGTDFTLTISSLQPEDFATYYCQQYYIYPYTFGQGTKVEIKGATPPETGAETESPGETTGGSAESEPPGEGEVQLVESGGGLVQPGGSLRLSCAASGFTFTDYTMDWVRQAPGKGLEWVADVNPNSGGSIYNQRFKGRFTLSVDRSKNTLYLQMNSLRAEDTAVYYCARNLGPSFYFDYWGQGTLVTVSSELVVTQEPSLTVSPGGTVTLTCRSSNGAVTSSNYANWVQQKPGQAPRGLIGGTNKRAPGTPARFSGSLLGGKAALTLSGVQPEDEAVYYCALWYPNLWVFGGGTKLTVLGATPPETGAETESPGETTGGSAESEPPGEGEVQLLESGGGIVQPGGSLKLSCAASGFTFNTYAMNWVRQAPGKGLEWVARIRSKYNNYATYYADSVKDRFTISRDDSKNTVYLQMNNLKTEDTAVYYCVRHENFGNSYVSWFAHWGQGTLVTVSSEAGRSANHTPAGLTGP
In assay [2], B2 displayed an EC50 (pM), cytotoxicity (Caspase-Glo 3/7), BT-474 cells with human PBMC of 66000 pM; an EC50 (pM), cytotoxicity (Caspase-Glo 3/7), SK-Br3 cells with human PBMC of 19500 pM; an EC50 (pM), cytotoxicity (Caspase-Glo 3/7), SKOV-3 cells with human PBMC of 14100 pM.

B3: CD3.9 scFv (scFv)
scFv: ELVVTQEPSLTVSPGGTVTLTCRSSTGAVTTSNYANWVQQKPGQAPRGLIGGTNKRAPGTPARFSGSLLGGKAALTLSGVQPEDEAEYYCALWYSNLWVFGGGTKLTVLGATPPETGAETESPGETTGGSAESEPPGEGEVQLLESGGGLVQPGGSLKLSCAASGFTFNTYAMNWVRQAPGKGLEWVARIRSKYNNYATYYADSVKDRFTISRDDSKNTAYLQMNNLKTEDTAVYYCVRHGNFGNSYVSWFAYWGQGTLVTVSS
Regarding B3, the Kd in assay [3] is 0.075 µM.

B4: CD3.24 scFv (scFv)
scFv: B3 scFv with T26N, A28E, N54I, E87V, S95P, L150I, A220V, G241E, Y253H
The molecule B4 registered a Kd in assay [3] of 0.296 µM.

B5: CD3.26 scFv (scFv)
scFv: B3 scFv with L10H, A28E, N54I, S95P, L150I, A220V, G241E, Y253H
Take B5: the Kd in assay [3] came out at 0.221 µM.

B6: CD3.25 scFv (scFv)
scFv: B3 scFv with L10H, T31S, N54I, S95P, L150I, A220V, G241E, Y253H
For B6, the Kd in assay [3] was 0.215 µM.

B7: CD3.23 scFv (scFv)
scFv: B3 scFv with T26N, T31S, E87V, S95P, L150I, A220V, G241E, Y253H
In assay [3], B7 registered a Kd of 0.175 µM.
